Positions count from the first letter of the chain named. Each block holds one molecule with its values, some of them ahead of it.
What was measured:
human TROP2 = biological target: T1, human TROP2 (Homo sapiens, UniProt P09758); assay: Surface plasmon resonance kinetics and affinities (Table 8B); format: binding; conditions: SPR, analyte TROP2
T1 sequence (P09758 27-323): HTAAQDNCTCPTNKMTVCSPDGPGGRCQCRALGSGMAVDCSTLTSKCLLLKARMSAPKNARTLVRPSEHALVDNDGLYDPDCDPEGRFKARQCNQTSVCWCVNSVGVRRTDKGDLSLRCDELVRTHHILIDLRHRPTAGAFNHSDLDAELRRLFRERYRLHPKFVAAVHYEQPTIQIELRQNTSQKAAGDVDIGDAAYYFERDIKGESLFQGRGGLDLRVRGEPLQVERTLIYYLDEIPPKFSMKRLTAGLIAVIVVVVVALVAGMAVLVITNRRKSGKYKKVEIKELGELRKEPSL
Description: Surface plasmon resonance (SPR) experiments were performed to determine the kinetics and affinities of certain antibodies shown in Table 8A.

SKBR3 cells = assay: FACS internalization of anti-TROP2 antibodies by SKBR3 cells; format: cell-based, human; conditions: 20 nM antibody mixed with 60 nM pHAb-labelled secondary antibody, overnight incubation
Description: FACS experiments were performed to verify that antibodies 1B3, 15D9, 15A10, 17B6, and 17D1 were internalized by SKBR3 cells. SKBR3 is a TROP2-expressing human breast carcinoma cell line. Briefly, 1.2×10^5 SKBR3 cells were seeded into each 12-well plates and cultured overnight. 300 μL of 20 nM control antibody, 1B3, 15D9, 15A10, 17B6, or 17D1 (in DMEM-10) were mixed with 300 μL 60 nM pHAb-labelled secondary antibody for 15 minutes at room temperature in the dark. The labeled antibodies mixtures were added to the SKBR3 cells and incubated overnight. Following overnight incubation, the SKBR3 cells were trypsinized, washed twice with 1% BSA/PBS, and analyzed via flow cytometry.

Kd (human TROP2): 0.4 nM
Rmax (human TROP2): 50.7
ka (human TROP2): 511000 M⁻¹ s⁻¹
kd (human TROP2): 0.000204 s⁻¹
Molecule: Control: biosimilar of the anti-TROP2 antibody sacituzumab [reference compound]

B1: 1B3: mouse anti-human TROP2 antibody, VH SEQ ID NO: 22, VL SEQ ID NO: 27 (antibody, V domains shown)
VH: QVQLQQSGAELVRPGVSVKISCKGSGYTFTDYSINWVKQSHAKSLEWIGVISTYYGDASYNQKFKGKATMTVDKSSSTAYMELARLTSEDSAIYYCARYGDGYNQFDYWGQGTTLTVSS
VL: DIVLTQSPASLAVSLGQRATISCRVSESVDSYGNNFMHWYQQKPGQPPKLLIYRASNLESGVPARFSGSGSGTDFTLTINPMEADDVATYYCQQSYEDPYTFGGGTKLEIK
internalization by SKBR3 cells (flow cytometry) (SKBR3 cells): internalized

B2: 15A10: mouse anti-human TROP2 antibody, VH SEQ ID NO: 23, VL SEQ ID NO: 28 (antibody, V domains shown)
VH: EVQLEQSGPGLVQPSQSLSITCTVSGFSLTRYGVHWVRQSPGRSLEWLGVIWSGGNTDYNAAFISRLTITKDNSKSQVFFKMNSLQPNDTGVYYCAREDRYVGEFAYWGQGTLVTVSA
VL: B1 VL with P8T, V25A, N35S, M37I, V62I, G72R, M82V, Y96N, Y100R
internalization by SKBR3 cells (flow cytometry) (SKBR3 cells): internalized

B3: 15D9: mouse anti-human TROP2 antibody, VH SEQ ID NO: 24, VL SEQ ID NO: 29 (antibody, V domains shown)
VH: QVQLQQSGAELVRPGVSVKISCKGSGYTFTDYSIHWVKQSHAKSLEWIGVISSYYGDATYNQKFKGKATMTVDKSSSTAYMELARLTSEDSAIYYCALLGAYNYFDYWGQGTTLTVSS
VL: B1 VL with V25A, N35S, I52V, V62I, G72R, M82V, Y100P
internalization by SKBR3 cells (flow cytometry) (SKBR3 cells): internalized

B4: 17D1: mouse anti-human TROP2 antibody, VH SEQ ID NO: 25, VL SEQ ID NO: 30 (antibody, V domains shown)
VH: B3 VH with V50L, S53T, N61T
VL: B1 VL with V25A, N35S, I52V, V62I, G72R, M82V, V87I, Y100P
internalization by SKBR3 cells (flow cytometry) (SKBR3 cells): internalized

B5: 17B6: mouse anti-human TROP2 antibody, VH SEQ ID NO: 26, VL SEQ ID NO: 31 (antibody, V domains shown)
VH: QVQLQQSGAELVRPGVSVKISCKGSGYTFTDYGMNWVKQSHAKSLEWIGVISTFYGDANYNQKFKGKATMTVDKSSSTAYMELARLTSEDSAIYYCARRGNYDSMDYWGQGTSVTVSS
VL: B1 VL with A9V, S10F, V25A, N35S, V62I, G72R, M82V, A88E, Y100P, K111E
internalization by SKBR3 cells (flow cytometry) (SKBR3 cells): internalized

Source: patent US12458818B2, “Anti-trophoblast cell surface antigen 2 (TROP2) antibodies and antibody drug conjugates comprising same” (CSPC MEGALITH BIOPHARMACEUTICAL CO., LTD., priority 2019, dated 2025)
